# Paper PMC8669218 (Acta Pharmacologica Sinica, 2021)
# Positions count from the first letter of the chain named.
# B1: extracellular domain of human DPP4 (residues 39-766), K122D (domain or fragment)
# chain: SRKTYTLTDYLKNTYRLKLYSLRWISDHEYLYKQENNILVFNAEYGNSSVFLENSTFDEFGHSINDYSISPDGQFILLEYNYVDQWRHSYTASYDIYDLNKRQLITEERIPNNTQWVTWSPVGHKLAYVWNNDIYVKIEPNLPSYRITWTGKEDIIYNGITDWVYEEEVFSAYSALWWSPNGTFLAYAQFNDTEVPLIEYSFYSDESLQYPKTVRVPYPKAGAVNPTVKFFVVNTDSLSSVTNATSIQITAPASMLIGDHYLCDVTWATQERISLQWLRRIQNYSVMDICDYDESSGRWNCLVARQHIEMSTTGWVGRFRPSEPHFTLDGNSFYKIISNEEGYRHICYFQIDKKDCTFITKGTWEVIGIEALTSDYLYYISNEYKGMPGGRNLYKIQLSDYTKVTCLSCELNPERCQYYSVSFSKEAKYYQLRCSGPGLPLYTLHSSVNDKGLRVLEDNSALDKMLQNVQMPSKKLDFIILNETKFWYQMILPPHFDKSKKYPLLLDVYAGPCSQKADTVFRLNWATYLASTENIIVASFDGRGSGYQGDKIMHAINRRLGTFEVEDQIEAARQFSKMGFVDNKRIAIWGWSYGGYVTSMVLGSGSGVFKCGIAVAPVSRWEYYDSVYTERYMGLPTPEDNLDHYRNSTVMSRAENFKQVEYLLIHGTADDNVHFQQSAQISKALVDVGVDFQAMWYTDEDHGIASSTAHQHIYTHMSHFIKQCFSLP
# modifications: glycosylated (sites not given)
# B2: extracellular domain of human DPP4 (residues 39-766), D243A (domain or fragment)
# chain: B1 chain with D84K, D205A
# modifications: glycosylated (sites not given)
# B3: extracellular domain of human DPP4 (residues 39-766), P257A (domain or fragment)
# chain: B1 chain with D84K, P219A
# modifications: glycosylated (sites not given)
# Target: the molecule itself
# Experiment: nonreducing SDS-PAGE
row,Protein,binding result
1,B1,binds
2,B2,binds
3,B3,binds
